Assay results taken from publication PMC9482650, “Quantitative fragmentomics allow affinity mapping of interactomes” (Nature Communications, 2022).

Experiments:
Experiment in all cases: holdup assay
Design in all cases: key: below the threshold = too weak to quantify, mostly under pKd 3.1 to 4
LAP2, Q96RT1 = target: LAP2, Q96RT1
GIPC2, Q8TF65 = target: GIPC2, Q8TF65
DLG3_2, Q92796 = target: T1, DLG3_2, Q92796
T1 sequence (Q92796 221-321, limits assumed, looked up): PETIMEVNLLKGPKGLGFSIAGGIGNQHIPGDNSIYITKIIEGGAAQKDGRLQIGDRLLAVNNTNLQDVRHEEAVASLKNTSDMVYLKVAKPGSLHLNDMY

MAGI2_4, Q86UL8 = target: MAGI2_4, Q86UL8
MAGI2_4, Q86UL8, sequence (Q86UL8 772-865): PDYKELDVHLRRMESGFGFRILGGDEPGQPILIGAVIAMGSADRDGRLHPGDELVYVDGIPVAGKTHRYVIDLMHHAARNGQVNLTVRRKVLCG

FRMPD2_2, Q68DX3 = target: FRMPD2_2, Q68DX3
FRMPD2_2, Q68DX3, sequence (Q68DX3 944-1038): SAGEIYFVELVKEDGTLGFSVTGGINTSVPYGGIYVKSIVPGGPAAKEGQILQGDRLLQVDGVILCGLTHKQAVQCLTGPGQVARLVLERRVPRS

TJP1_2, Q07157 = target: TJP1_2, Q07157
TJP1_2, Q07157, sequence (Q07157 181-274): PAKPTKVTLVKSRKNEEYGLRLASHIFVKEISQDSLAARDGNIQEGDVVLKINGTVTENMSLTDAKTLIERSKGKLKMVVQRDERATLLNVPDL

Inadl_6, Q8NI35 = target: Inadl_6, Q8NI35
Inadl_6, Q8NI35, sequence (Q8NI35 1058-1167): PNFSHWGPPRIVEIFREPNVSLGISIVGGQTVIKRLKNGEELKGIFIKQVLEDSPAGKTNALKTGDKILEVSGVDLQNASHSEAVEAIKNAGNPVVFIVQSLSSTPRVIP

DFNB31_1, Q9P202 = target: T2, DFNB31_1, Q9P202
T2 sequence (Q9P202 135-233, limits assumed, looked up): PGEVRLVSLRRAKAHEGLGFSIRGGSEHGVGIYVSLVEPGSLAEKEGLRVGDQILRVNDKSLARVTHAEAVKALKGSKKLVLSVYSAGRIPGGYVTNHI

PCLO, Q9Y6V0 = target: T3, PCLO, Q9Y6V0
T3 sequence (Q9Y6V0 4491-4600, limits assumed, looked up): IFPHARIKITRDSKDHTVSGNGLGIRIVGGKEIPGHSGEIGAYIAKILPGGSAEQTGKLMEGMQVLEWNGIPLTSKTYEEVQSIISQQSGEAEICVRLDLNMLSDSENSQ

CASK, O14936 = target: CASK, O14936
CASK, O14936, sequence (O14936 487-570): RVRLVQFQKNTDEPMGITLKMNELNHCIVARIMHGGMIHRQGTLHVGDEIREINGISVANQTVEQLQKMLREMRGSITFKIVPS

PTPN13_1, Q12923 = target: T4, PTPN13_1, Q12923
T4 sequence (Q12923 1088-1188, limits assumed, looked up): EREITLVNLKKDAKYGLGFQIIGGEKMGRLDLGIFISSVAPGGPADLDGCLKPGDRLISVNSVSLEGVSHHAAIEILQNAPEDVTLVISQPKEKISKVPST

MPP6, Q9NZW5 = target: T5, MPP6, Q9NZW5
T5 sequence (Q9NZW5 125-219, limits assumed, looked up): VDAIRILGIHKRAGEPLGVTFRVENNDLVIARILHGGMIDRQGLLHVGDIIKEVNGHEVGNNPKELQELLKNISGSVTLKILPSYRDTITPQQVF

Inadl_4, Q8NI35 = target: Inadl_4, Q8NI35
Inadl_4, Q8NI35, sequence (Q8NI35 547-651): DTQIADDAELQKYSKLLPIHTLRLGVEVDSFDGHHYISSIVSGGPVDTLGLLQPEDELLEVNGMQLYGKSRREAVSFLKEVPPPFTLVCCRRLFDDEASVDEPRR

PARD3B_1, Q8TEW8 = target: T6, PARD3B_1, Q8TEW8
T6 sequence (Q8TEW8 196-299, limits assumed, looked up): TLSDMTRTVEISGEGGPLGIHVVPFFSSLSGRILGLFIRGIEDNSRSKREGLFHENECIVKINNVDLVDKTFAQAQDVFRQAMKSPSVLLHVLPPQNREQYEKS

FRMPD2_3, Q68DX3 = target: FRMPD2_3, Q68DX3
FRMPD2_3, Q68DX3, sequence (Q68DX3 1073-1166): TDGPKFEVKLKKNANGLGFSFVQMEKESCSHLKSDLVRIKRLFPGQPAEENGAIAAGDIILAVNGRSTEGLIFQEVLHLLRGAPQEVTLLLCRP

DLG1_2, Q12959 = target: DLG1_2, Q12959
DLG1_2, Q12959, sequence (Q12959 314-412): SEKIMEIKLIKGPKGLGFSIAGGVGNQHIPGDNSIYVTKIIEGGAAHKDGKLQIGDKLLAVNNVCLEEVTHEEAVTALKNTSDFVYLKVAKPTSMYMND

APBA1_2, Q02410 = target: T7, APBA1_2, Q02410
T7 sequence (Q02410 742-832, limits assumed, looked up): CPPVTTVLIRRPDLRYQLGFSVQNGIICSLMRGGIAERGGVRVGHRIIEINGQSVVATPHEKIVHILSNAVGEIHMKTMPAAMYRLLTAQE

NHERF2_2, Q15599 = target: NHERF2_2, Q15599
NHERF2_2, Q15599, sequence (Q15599 142-238): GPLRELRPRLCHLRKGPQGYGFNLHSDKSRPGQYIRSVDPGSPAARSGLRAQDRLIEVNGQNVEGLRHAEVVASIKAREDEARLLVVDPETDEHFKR

GRIP1_4, Q9Y3R0 = target: T8, GRIP1_4, Q9Y3R0
T8 sequence (Q9Y3R0 467-571, limits assumed, looked up): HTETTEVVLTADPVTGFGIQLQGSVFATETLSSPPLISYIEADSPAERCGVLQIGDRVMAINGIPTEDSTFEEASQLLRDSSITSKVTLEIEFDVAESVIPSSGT

APBA3_1, O96018 = target: T9, APBA3_1, O96018
T9 sequence (O96018 389-490, limits assumed, looked up): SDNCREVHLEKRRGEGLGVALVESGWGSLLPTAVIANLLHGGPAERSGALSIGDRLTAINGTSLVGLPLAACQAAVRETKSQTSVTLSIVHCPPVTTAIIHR

GRIP1_3, Q9Y3R0 = target: T10, GRIP1_3, Q9Y3R0
T10 sequence (Q9Y3R0 247-346, limits assumed, looked up): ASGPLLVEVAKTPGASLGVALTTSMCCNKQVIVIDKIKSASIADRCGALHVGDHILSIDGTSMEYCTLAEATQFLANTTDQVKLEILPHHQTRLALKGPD

SHANK1, Q9Y566 = target: T11, SHANK1, Q9Y566
T11 sequence (Q9Y566 658-767, limits assumed, looked up): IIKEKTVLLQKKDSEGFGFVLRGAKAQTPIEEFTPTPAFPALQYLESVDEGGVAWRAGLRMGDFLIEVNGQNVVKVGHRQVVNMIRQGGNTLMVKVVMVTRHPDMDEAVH

MPDZ_12, O75970 = target: T12, MPDZ_12, O75970
T12 sequence (O75970 1857-1958, limits assumed, looked up): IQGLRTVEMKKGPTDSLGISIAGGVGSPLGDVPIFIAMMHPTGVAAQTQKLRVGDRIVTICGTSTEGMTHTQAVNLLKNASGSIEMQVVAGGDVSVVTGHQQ

PDZD7_3, Q9H5P4 = target: T13, PDZD7_3, Q9H5P4
T13 sequence (Q9H5P4 857-944, limits assumed, looked up): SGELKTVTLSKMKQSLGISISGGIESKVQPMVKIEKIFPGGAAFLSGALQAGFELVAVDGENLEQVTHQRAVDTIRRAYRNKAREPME

[1] = plain residues with an end cap or a label only (N-terminal biotin on a linker: ttds)
[2] = plain residues with an end cap or a label only (N-terminal biotin on a linker: ahx)

LAP2, Q96RT1, sequence (Q96RT1 other isoform, or with tags, fused parts or gaps): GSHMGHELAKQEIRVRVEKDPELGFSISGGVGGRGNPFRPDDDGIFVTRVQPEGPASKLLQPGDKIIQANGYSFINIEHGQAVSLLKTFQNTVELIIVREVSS
GIPC2, Q8TF65, sequence (Q8TF65 112-203): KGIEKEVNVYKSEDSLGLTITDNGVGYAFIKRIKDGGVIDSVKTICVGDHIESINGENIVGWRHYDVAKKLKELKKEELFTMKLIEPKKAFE

Binder: KKYVDAETSL [SLC4A7, Q9Y6M7]
- pKd (LAP2, Q96RT1; [1]): below the threshold
- pKd (GIPC2, Q8TF65; [1]): 3.68
- pKd (DLG3_2, Q92796; [1]): 3.91
- pKd (MAGI2_4, Q86UL8; [1]): below the threshold
- pKd (FRMPD2_2, Q68DX3; [1]): below the threshold
- pKd (TJP1_2, Q07157; [1]): below the threshold
- pKd (Inadl_6, Q8NI35; [1]): 3.71
- pKd (DFNB31_1, Q9P202; [1]): 3.98
- pKd (PCLO, Q9Y6V0; [1]): below the threshold
- pKd (CASK, O14936; [1]): below the threshold
- pKd (PTPN13_1, Q12923; [1]): below the threshold
- pKd (MPP6, Q9NZW5; [1]): below the threshold
- pKd (Inadl_4, Q8NI35; [1]): below the threshold
- pKd (PARD3B_1, Q8TEW8; [1]): 3.65
- pKd (FRMPD2_3, Q68DX3; [1]): below the threshold
- pKd (DLG1_2, Q12959; [1]): 3.56
- pKd (APBA1_2, Q02410; [1]): 3.73
- pKd (NHERF2_2, Q15599; [1]): 4.62
- pKd (GRIP1_4, Q9Y3R0; [1]): below the threshold
- pKd (APBA3_1, O96018; [1]): below the threshold
- pKd (GRIP1_3, Q9Y3R0; [1]): below the threshold
- pKd (SHANK1, Q9Y566; [1]): 4.67
- pKd (MPDZ_12, O75970; [1]): below the threshold
- pKd (PDZD7_3, Q9H5P4; [1]): 3.77

Binder: DKDPHSETAL [TMIGD1, Q6UXZ0]
- pKd (LAP2, Q96RT1; [1]): 3.66
- pKd (GIPC2, Q8TF65; [1]): below the threshold
- pKd (DLG3_2, Q92796; [1]): below the threshold
- pKd (MAGI2_4, Q86UL8; [1]): below the threshold
- pKd (FRMPD2_2, Q68DX3; [1]): below the threshold
- pKd (TJP1_2, Q07157; [1]): below the threshold
- pKd (Inadl_6, Q8NI35; [1]): 3.53
- pKd (DFNB31_1, Q9P202; [1]): 3.98
- pKd (PCLO, Q9Y6V0; [1]): below the threshold
- pKd (CASK, O14936; [1]): below the threshold
- pKd (PTPN13_1, Q12923; [1]): below the threshold
- pKd (MPP6, Q9NZW5; [1]): below the threshold
- pKd (Inadl_4, Q8NI35; [1]): below the threshold
- pKd (PARD3B_1, Q8TEW8; [1]): below the threshold
- pKd (FRMPD2_3, Q68DX3; [1]): below the threshold
- pKd (DLG1_2, Q12959; [1]): below the threshold
- pKd (APBA1_2, Q02410; [1]): 3.65
- pKd (NHERF2_2, Q15599; [1]): 4.66
- pKd (GRIP1_4, Q9Y3R0; [1]): below the threshold
- pKd (APBA3_1, O96018; [1]): below the threshold
- pKd (GRIP1_3, Q9Y3R0; [1]): below the threshold
- pKd (SHANK1, Q9Y566; [1]): 4.42
- pKd (MPDZ_12, O75970; [1]): below the threshold
- pKd (PDZD7_3, Q9H5P4; [1]): 4.07

Binder: SDSSGQEYSL [KCTD3, Q9Y597]
- pKd (LAP2, Q96RT1; [2]): below the threshold
- pKd (GIPC2, Q8TF65; [2]): 3.64
- pKd (DLG3_2, Q92796; [2]): below the threshold
- pKd (MAGI2_4, Q86UL8; [2]): below the threshold
- pKd (FRMPD2_2, Q68DX3; [2]): below the threshold
- pKd (TJP1_2, Q07157; [2]): below the threshold
- pKd (Inadl_6, Q8NI35; [2]): below the threshold
- pKd (DFNB31_1, Q9P202; [2]): below the threshold
- pKd (PCLO, Q9Y6V0; [2]): below the threshold
- pKd (CASK, O14936; [2]): below the threshold
- pKd (PTPN13_1, Q12923; [2]): below the threshold
- pKd (MPP6, Q9NZW5; [2]): 3.83
- pKd (Inadl_4, Q8NI35; [2]): below the threshold
- pKd (PARD3B_1, Q8TEW8; [2]): below the threshold
- pKd (FRMPD2_3, Q68DX3; [2]): below the threshold
- pKd (DLG1_2, Q12959; [2]): below the threshold
- pKd (APBA1_2, Q02410; [2]): 3.65
- pKd (NHERF2_2, Q15599; [2]): below the threshold
- pKd (GRIP1_4, Q9Y3R0; [2]): below the threshold
- pKd (APBA3_1, O96018; [2]): below the threshold
- pKd (GRIP1_3, Q9Y3R0; [2]): below the threshold
- pKd (SHANK1, Q9Y566; [2]): below the threshold
- pKd (MPDZ_12, O75970; [2]): below the threshold
- pKd (PDZD7_3, Q9H5P4; [2]): below the threshold
